The series relates to Escherichia coli TOP10. The series is described as follows: shrunken log2 fold change of peptide-encoding DNA abundance (4.5 h post-induction vs induction); higher = less antimicrobial activity (less host growth inhibition). To be noted: time post-induction: 4.5 h; library: site-saturation at positions 5, 18, 19, 20.
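Further: peptides expressed intracellularly from a pBAD plasmid library in pooled LB shake-flask culture, induced with 0.3% L-arabinose, DNA abundance read by NGS, three biological replicates, DESeq2 with apeglm shrinkage.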

As to RRIRYRPPRLPRPRPRPAQHPRP, the “shrunken log2 fold change” value was -0.515. With RRIRMRPPRLPRPRPRPDDRPRP the figure was -0.012; with RRIRDRPPRLPRPRPRPNVKPRP, -0.631. On to RRIRSRPPRLPRPRPRPTRHPRP, for which the “shrunken log2 fold change” value amounted to 0.227.

Take RRIRRRPPRLPRPRPRPYPLPRP: the “shrunken log2 fold change” value stood at 0.015. With RRIRCRPPRLPRPRPRPNALPRP the figure was 0.0653. With RRIRFRPPRLPRPRPRPNSVPRP the figure was -0.0912; with RRIRDRPPRLPRPRPRPWGEPRP, 0.0987. With RRIRHRPPRLPRPRPRPYGCPRP the figure was -0.118; with RRIRTRPPRLPRPRPRPCEQPRP, 0.0027. As to RRIRERPPRLPRPRPRPPSQPRP, the “shrunken log2 fold change” value was -0.213. With RRIRMRPPRLPRPRPRPGKNPRP the figure was 0.417; with RRIRGRPPRLPRPRPRPWVCPRP, 0.0844; with RRIRQRPPRLPRPRPRPYPAPRP, -0.289. For RRIRMRPPRLPRPRPRPVLFPRP, the “shrunken log2 fold change” value stood at 0.289.

In the case of RRIRRRPPRLPRPRPRPMYFPRP, the “shrunken log2 fold change” value is -0.21. With RRIRQRPPRLPRPRPRPHCEPRP, the “shrunken log2 fold change” value was -0.0142.

Regarding RRIRMRPPRLPRPRPRPHMWPRP, the “shrunken log2 fold change” value was determined as 0.108.

Turning to RRIRGRPPRLPRPRPRPMWEPRP, the “shrunken log2 fold change” value worked out at 1.3. With RRIRKRPPRLPRPRPRPVQWPRP the figure was 0.743; with RRIRMRPPRLPRPRPRPEFQPRP, 0.372. Turning to RRIRYRPPRLPRPRPRPWKQPRP, the “shrunken log2 fold change” value was -0.0389. With RRIRFRPPRLPRPRPRPRCCPRP the figure was 0.164.

For RRIRWRPPRLPRPRPRPMPIPRP, the “shrunken log2 fold change” value came out at 0.0953.

As for RRIRERPPRLPRPRPRPDAPPRP, the “shrunken log2 fold change” value was determined as 0.0716. For RRIRPRPPRLPRPRPRPVTGPRP, the “shrunken log2 fold change” value is -0.0902. With RRIRCRPPRLPRPRPRPFTQPRP the figure was -0.559; with RRIRFRPPRLPRPRPRPLSNPRP, -0.504; with RRIRRRPPRLPRPRPRPGENPRP, 0.066. In the case of RRIRDRPPRLPRPRPRPWYWPRP, the “shrunken log2 fold change” value stood at 0.000762. As for RRIRNRPPRLPRPRPRPTLVPRP, the figure is -0.0435; as for RRIRERPPRLPRPRPRPVLWPRP, 0.153; as for RRIRIRPPRLPRPRPRPGHLPRP, -0.101. With RRIRHRPPRLPRPRPRPPGMPRP, the “shrunken log2 fold change” value was found to be 0.0769. As for RRIRRRPPRLPRPRPRPFGKPRP, the figure is 0.0788.

RRIRVRPPRLPRPRPRPGLYPRP: the “shrunken log2 fold change” value was -0.384. For the sequence RRIRIRPPRLPRPRPRPKCAPRP, the “shrunken log2 fold change” value was found to be 0.0106. As for RRIRYRPPRLPRPRPRPCQGPRP, the figure is -0.0126; as for RRIRGRPPRLPRPRPRPPNDPRP, 0.76.

As for RRIRFRPPRLPRPRPRPVFCPRP, the “shrunken log2 fold change” value is -0.0281. With RRIRPRPPRLPRPRPRPTNCPRP the figure was -0.169; with RRIRNRPPRLPRPRPRPVACPRP, -0.0504; with RRIRRRPPRLPRPRPRPARDPRP, 0.185. With RRIRRRPPRLPRPRPRPQDSPRP the figure was -0.0402; with RRIRNRPPRLPRPRPRPRHRPRP, 0.202; with RRIRKRPPRLPRPRPRPMPQPRP, 0.0873. With RRIRYRPPRLPRPRPRPFDFPRP the figure was -0.409; with RRIRNRPPRLPRPRPRPMKCPRP, 0.0131. RRIRERPPRLPRPRPRPWRHPRP: the “shrunken log2 fold change” value was -0.0998. Turning to RRIRHRPPRLPRPRPRPLHQPRP, the “shrunken log2 fold change” value is -0.00684.

As for RRIRRRPPRLPRPRPRPKNTPRP, the “shrunken log2 fold change” value was -0.0507. As for RRIRKRPPRLPRPRPRPYWLPRP, the figure is -0.229. As for RRIRYRPPRLPRPRPRPHCYPRP, the figure is -0.426.

For RRIRTRPPRLPRPRPRPNGYPRP, the “shrunken log2 fold change” value is -0.12.

As to RRIRYRPPRLPRPRPRPDRNPRP, the “shrunken log2 fold change” value is -0.018. Regarding RRIRQRPPRLPRPRPRPHMKPRP, the “shrunken log2 fold change” value was -0.0294. On to RRIRARPPRLPRPRPRPAHMPRP, for which the “shrunken log2 fold change” value is -0.114. As for RRIRGRPPRLPRPRPRPMPKPRP, the figure is 0.884; as for RRIRDRPPRLPRPRPRPYEFPRP, 0.047; as for RRIRPRPPRLPRPRPRPEQIPRP, 0.0118. For the sequence RRIRGRPPRLPRPRPRPPYEPRP, the “shrunken log2 fold change” value stood at 0.0264. As for RRIRTRPPRLPRPRPRPREFPRP, the figure is 0.33; as for RRIRERPPRLPRPRPRPPRMPRP, 0.027; as for RRIRRRPPRLPRPRPRPKEMPRP, 0.0252.

As to RRIRTRPPRLPRPRPRPAWHPRP, the “shrunken log2 fold change” value stood at 0.282. With RRIRNRPPRLPRPRPRPHRLPRP the figure was -0.00303; with RRIRKRPPRLPRPRPRPWYEPRP, -0.0672. With RRIRIRPPRLPRPRPRPTRYPRP the figure was -0.328; with RRIRARPPRLPRPRPRPAYCPRP, -0.00541. With RRIRCRPPRLPRPRPRPPQSPRP the figure was 0.839. For the sequence RRIRKRPPRLPRPRPRPFFNPRP, the “shrunken log2 fold change” value came out at 0.0296.

With RRIRKRPPRLPRPRPRPGHYPRP, the “shrunken log2 fold change” value was determined as 0.0236.

For the sequence RRIRRRPPRLPRPRPRPYGQPRP, the “shrunken log2 fold change” value is 0.501. As for RRIRKRPPRLPRPRPRPNVLPRP, the figure is -0.112. On to RRIRYRPPRLPRPRPRPREEPRP, for which the “shrunken log2 fold change” value came out at 0.0202. With RRIRVRPPRLPRPRPRPIRLPRP the figure was -0.419. With RRIRDRPPRLPRPRPRPFGPPRP the figure was -0.0754; with RRIRSRPPRLPRPRPRPDMEPRP, 0.0134; with RRIRQRPPRLPRPRPRPTKLPRP, -0.0369.

For the sequence RRIRNRPPRLPRPRPRPISCPRP, the “shrunken log2 fold change” value was -0.205. Turning to RRIRNRPPRLPRPRPRPTDMPRP, the “shrunken log2 fold change” value is -0.0588. For the sequence RRIRNRPPRLPRPRPRPGKVPRP, the “shrunken log2 fold change” value was -0.123. With RRIRGRPPRLPRPRPRPGCEPRP the figure was 2.03. With RRIRLRPPRLPRPRPRPFCCPRP the figure was -0.255; with RRIRHRPPRLPRPRPRPGSMPRP, -0.099; with RRIRNRPPRLPRPRPRPRMWPRP, 0.28. As for RRIRKRPPRLPRPRPRPIVNPRP, the figure is 0.219; as for RRIRARPPRLPRPRPRPCTPPRP, -0.0509; as for RRIRHRPPRLPRPRPRPLCFPRP, -0.243. As for RRIRQRPPRLPRPRPRPRWFPRP, the “shrunken log2 fold change” value stood at 0.0284. For the sequence RRIRTRPPRLPRPRPRPLIWPRP, the “shrunken log2 fold change” value worked out at 0.361. As to RRIRCRPPRLPRPRPRPISLPRP, the “shrunken log2 fold change” value is -0.426. With RRIRGRPPRLPRPRPRPGVMPRP, the “shrunken log2 fold change” value turned out to be 1.05.

Consider RRIRKRPPRLPRPRPRPRCIPRP, for which the “shrunken log2 fold change” value is -0.187. With RRIRMRPPRLPRPRPRPEVPPRP the figure was 1.33; with RRIRFRPPRLPRPRPRPCPTPRP, -0.0449; with RRIRGRPPRLPRPRPRPHNPPRP, -0.0429.

RRIRQRPPRLPRPRPRPTCYPRP: the “shrunken log2 fold change” value was -0.309.

On to RRIRVRPPRLPRPRPRPMDMPRP, for which the “shrunken log2 fold change” value is -0.946. As for RRIRTRPPRLPRPRPRPKCHPRP, the figure is -0.0989. Consider RRIRMRPPRLPRPRPRPRDDPRP, for which the “shrunken log2 fold change” value amounted to 0.202. With RRIRWRPPRLPRPRPRPIEIPRP the figure was -0.101; with RRIRERPPRLPRPRPRPYLLPRP, -0.165; with RRIRERPPRLPRPRPRPCYRPRP, -0.357. With RRIRPRPPRLPRPRPRPCVDPRP the figure was -0.149; with RRIRCRPPRLPRPRPRPWQIPRP, -0.153. As for RRIRSRPPRLPRPRPRPTNFPRP, the figure is 0.0979; as for RRIRNRPPRLPRPRPRPEISPRP, -0.126. Turning to RRIRMRPPRLPRPRPRPERSPRP, the “shrunken log2 fold change” value was 3.22.

Consider RRIRNRPPRLPRPRPRPRSYPRP, for which the “shrunken log2 fold change” value was -0.0727.

Turning to RRIRCRPPRLPRPRPRPILAPRP, the “shrunken log2 fold change” value amounted to 0.127. On to RRIRLRPPRLPRPRPRPGMPPRP, for which the “shrunken log2 fold change” value is -0.15. As for RRIRCRPPRLPRPRPRPQKQPRP, the figure is 0.0183; as for RRIRCRPPRLPRPRPRPERCPRP, 0.302. As for RRIRNRPPRLPRPRPRPNTPPRP, the figure is -0.543. Regarding RRIRWRPPRLPRPRPRPHLGPRP, the “shrunken log2 fold change” value amounted to 0.14. Consider RRIRHRPPRLPRPRPRPSDSPRP, for which the “shrunken log2 fold change” value is -0.0454.

As to RRIRDRPPRLPRPRPRPPQSPRP, the “shrunken log2 fold change” value stood at 0.613. Take RRIRMRPPRLPRPRPRPYFYPRP: the “shrunken log2 fold change” value was -0.53. With RRIRMRPPRLPRPRPRPGCEPRP the figure was 1.87. As to RRIRTRPPRLPRPRPRPPAPPRP, the “shrunken log2 fold change” value came out at 0.592.

In the case of RRIRFRPPRLPRPRPRPKDRPRP, the “shrunken log2 fold change” value was determined as 0.148. As for RRIRRRPPRLPRPRPRPSVIPRP, the figure is -0.00654; as for RRIRFRPPRLPRPRPRPMYEPRP, -0.309.

For RRIRRRPPRLPRPRPRPIRKPRP, the “shrunken log2 fold change” value was -0.0416.

These data come from the supplement of paper PMC9112550, “Optimization of the antimicrobial peptide Bac7 by deep mutational scanning” (BMC Biology, 2022).
